B1: phi3T AimR receptor with C-terminal 6xHis-tag (purified) (receptor)
chain: MIKNECEKDNQLAARLAKLAGYEKVNGFYKFVNTPEKEMENLGGLLKIVKNLFPDSEEQLLSEYFLELDPNKKCARQSVEYSDINQWDTLTDKIIINLCNSKNSTSQEWGKVYSLHRKLNKNEISLNDAIRESGKCKIKSAEMLFFSNAMLMYAYLNIGEFGLMKSTSKLLEFDDLPEGFIKESFKSRVSMLEANISLNENSLLEARQHSNRAIENSNVNRICFFAYLTIGNTLIFEDYDEAKKAYIKGQKYAKNPVHQEMLDGALCFLSNIWKKENQWVNYNSDNIKYLQLRAFYYINQGNIEEATEILDELSSRDQDENELGFYYYYKGLISQDKTDYYKSIRYFKKSDDKYFIQLPLLQLERMGADLELLNLISIHHHHHH
notes: Expressed in E. coli BL21(DE3) from pET28a and purified in two steps; Migrates as a homodimer in gel filtration without peptide and as a monomer with SAIRGA; also called His-tagged AimR; purified AimR

Data set [1] deals with the molecule itself. Briefly: analytical gel filtration (Superdex 200 Increase), self-association.
Procedure: Pure AimR was injected to an analytical gel filtration column (Superdex_200_Increase_10/30 GL, GE Healthcare) equilibrated with buffer containing 20 mM Tris pH 8, 0.3 M NaCl, 2 mM TCEP. […] The column was calibrated (inset of FIG. 4C) by monitoring the migration positions of the following known proteins/polymers: blue dextran (2000 kDa), Thyroglobulin (669 kDa), Apoferritin (443 kDa), beta-amylase (200 kDa), alcohol dehydrogenase (150 kDa), Albumin (66 kDA) and Carbonic anhydrase (29 kDa).
Data set [2] addresses B1. Briefly: microscale thermophoresis (MST), label-free.
Procedure: Two-step purified 6×His-tagged AimR stored in Tris/NaCl buffer (50 mM Tris pH 8.0, 150 mM NaCl, 2 mM TCEP) at −80° C. was thawed on ice and centrifuged at 21,000 g for 10 minutes at 4° C. prior to analysis. […] AimR was diluted to 200 nM and was incubated with 16 different peptide concentrations varying between 9-4000 nM, which were prepared in Tris/NaCl buffer containing 0.1% [v/v] Pluronic acid (NanoTemper). Roughly 3 μl were loaded into NT.LabelFree Zero-Background Premium Coated Capillaries (NanoTemper) and inserted into a Monolith NT.LabelFree device (NanoTemper). MST experiments were performed at 60% MST power (infra-red laser) and 20% LED power at 23° C. using the Monolith NT.LabelFree instrument (Nanotemper). Ratios between normalized initial fluorescence and post-temperature-jump and thermophoresis were calculated and averaged from 3 independent runs (runs were incubated for 20 minutes at room temperature before the measurement).

Experimental findings from patent publication US20190264213A1 (YEDA RESEARCH AND DEVELOPMENT, published 2019) are described below.

For the molecule B1, in data set [1], the binding result is recorded as “binds”.

B2: GMPRGA peptide (spBeta arbitrium peptide, mature AimP) (peptide)
peptide: GMPRGA
notes: Synthetic peptide, 98% purity, desalted (Peptide 2.0 Inc.); also called spBeta-derived GMPRGA peptide
Consider B2, for which the binding result in data set [2] is “no binding (tested: peptide 9-4000 nM, AimR 200 nM)”.
